Laboratory results published in doi:10.1101/2021.07.20.453048.

Target: Taxol-stabilized microtubules polymerised from purified bovine brain tubulin (bovine) (UniProt Q6B856)
Experiment: co-sedimentation

B1: His-MBP-ENKD1 (maltose-binding protein fusion of full-length human Enkurin domain containing 1) (natural protein)
chain: MCEGPSRISGPIPPDPTLCPDNYRRPTSAQGRLEGNALKLDLLTSDRALDTTAPRGPCIGPGAGEILERGQRGVGDVLLQLEGISLGPGASLKRKDPKDHEKENLRRIREIQKRFREQERSREQGQPRPLKALWRSPKYDKVESRVKAQLQEPGPASGTESAHFLRAHSRCGPGLPPPHVSSPQPTPPGPEAKEPGLGVDFIRHNARAAKRAPRRHSCSLQVLAQVLEQQRQAQEHYNATQKGHVPHYLLERRDLWRREAEARKQSQPDPAMPPGHTRMPENQRLETLTKLLQSQSQLLRELVLLPAGADSLRAQSHRAELDRKLVQVEEAIKIFSRPKVFVKMDD
Kd: 160 nM
